Measurements: patent US12421510B2, “Peptide, a complex and a method for treating cancer” (TECHNION RESEARCH & DEVELOPMENT FOUNDATION LIMITED, priority 2018, dated 2025)

Target: T1, p105 (Homo sapiens, UniProt P19838)
T1 sequence (P19838 1-968): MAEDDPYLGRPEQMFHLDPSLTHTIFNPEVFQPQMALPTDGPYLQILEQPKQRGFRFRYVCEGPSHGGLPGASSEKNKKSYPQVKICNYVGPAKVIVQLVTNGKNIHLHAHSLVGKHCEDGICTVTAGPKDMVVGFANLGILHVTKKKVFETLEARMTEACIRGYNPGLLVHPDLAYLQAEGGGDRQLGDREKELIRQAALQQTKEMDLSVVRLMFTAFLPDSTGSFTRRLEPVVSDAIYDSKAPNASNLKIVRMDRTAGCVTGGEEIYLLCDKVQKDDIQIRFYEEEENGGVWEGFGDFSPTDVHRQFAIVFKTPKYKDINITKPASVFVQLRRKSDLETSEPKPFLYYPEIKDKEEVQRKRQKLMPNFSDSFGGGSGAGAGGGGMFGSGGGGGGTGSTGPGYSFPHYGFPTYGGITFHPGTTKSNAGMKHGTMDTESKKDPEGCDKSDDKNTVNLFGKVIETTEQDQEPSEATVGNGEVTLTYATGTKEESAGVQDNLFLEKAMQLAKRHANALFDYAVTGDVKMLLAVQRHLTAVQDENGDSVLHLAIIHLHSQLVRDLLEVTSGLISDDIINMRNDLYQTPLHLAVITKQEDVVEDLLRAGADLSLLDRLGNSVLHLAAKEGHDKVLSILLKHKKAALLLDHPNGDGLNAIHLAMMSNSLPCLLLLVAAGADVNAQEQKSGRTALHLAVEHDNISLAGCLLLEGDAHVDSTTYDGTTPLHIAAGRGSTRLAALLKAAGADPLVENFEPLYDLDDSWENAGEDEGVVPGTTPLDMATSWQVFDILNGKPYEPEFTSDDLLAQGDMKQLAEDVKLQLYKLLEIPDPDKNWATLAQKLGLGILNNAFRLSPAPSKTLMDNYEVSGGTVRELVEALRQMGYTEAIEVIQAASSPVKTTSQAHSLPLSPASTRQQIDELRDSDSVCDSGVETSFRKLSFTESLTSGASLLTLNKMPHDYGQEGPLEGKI
Test: Co-immunoprecipitation (Co-IP) of KPC1 species with p105-HA from transfected HEK293T cells
Type: binding
Design: HA; expressed in transfected cells; host or cells: HEK293T
Conditions: anti-FLAG immunoprecipitation, anti-NF-κB1 western blot
Source text: FIG. 1B is a western blot showing the following: HEK293T cells were transfected with cDNAs coding for p105-HA (lanes 1-6), along with the different KPC1 species as following: W.T KPC1 (lane 1), KPC1Δ969-1314 (lane 2), KPC1Δ1-438 & 1039-1314 (lane 3), KPC1Δ1-967 (lane 4) and KPC1Δ1-1042 (lane 5). Lane 6 was transfected with an empty vector. KPC1 species were immunoprecipitated using immobilized FLAG antibodies, resolved by SDS-page, and NF-κB1 and KPC1 proteins were visualized by anti-NF-κB1 (FIG. 1B (upper)) and anti-FLAG (FIG. 1B (bottom)) antibodies, respectively. 10% of the total cell lysate was analyzed for the expression of p105-HA.
FIG. 2B is a western blot. HEK293T cells were transfected with cDNAs coding for p105-HA (lanes 1-7), along with different KPC1 species as following: WT KPC1 (lane 1), KPC1Δ1-967 (lane 2), KPC1Δ967-1043 (lane 3), KPC1Δ1-973 (lane 4), KPC1Δ1-1017 (lane 5) and KPC1ΔCC domain (lane 6). Lane 7 represents cells that were transfected with empty vector. KPC1 species were immunoprecipitated using immobilized FLAG antibodies, resolved by SDS-page. NF-κB1 and KPC1 proteins were visualized with anti-NF-κB1 (FIG. 2B (i)) and anti-FLAG (FIG. 2B (ii)) antibodies, respectively. 10% of the total cell lysate was analyzed for the expression of p105-HA. FIGS. 3A and 3B: FIG. 3A is a schematic representation of KPC1 species used in the experiment shown in FIG. 3B that was directed to evaluating the region of KPC1 that is responsible for the interaction with p105.
FIG. 3B is a western blot. HEK293T cells were transfected with cDNAs coding for p105-HA (lanes 1-12), along with different KPC1 species as following: KPC1-FLAG (lane 1), WILVRLW-KPC1 Δ 1-1253 (SEQ ID NO: 8) (lane 2), ILVRLW-KPC1 Δ 1-1253 (SEQ ID NO: 10) (lane 3), LVRLW-KPC1 Δ 1-1253 (SEQ ID NO: 11) (lane 4), VRLW-KPC1 Δ 1-1253 (lane 5) (SEQ ID NO: 12), RLW-KPC1 Δ 1-1253 (lane 6) SEQ ID NO:13), KPC1 Δ 1-1253 (lane 7), WILVRL-KPC1 Δ 1-1253 (lane 8) (SEQ ID NO: 14), WILVR-KPC1 Δ 1-1253 (SEQ ID NO: 15) (lane 9), WILV-KPC1 Δ 1-1253 (SEQ ID NO: 16) (lane 10), WIL-KPC1 Δ 1-1253 (SEQ ID NO: 17 (lane 11). Lane 12 represents cells that were transfected with empty vector. KPC1 species were immunoprecipitated using immobilized FLAG antibodies, resolved by SDS-page. NF-κB1 and KPC1 proteins were visualized by anti-NF-κB1 (FIG. 3B, (i, ii) and anti-FLAG (FIG. 3B, (iii) antibodies, respectively. 10% of the total cell lysate was analyzed for the expression of p105-HA (FIG. 3B, (ii)).
HEK293T cells were transiently transfected with the various KPC1 species along with p105-HA using the j etPEI reagent. 48 hours after transfection, the cells were harvested and lysed with RIPA buffer [150 mM NaCl, 0.5% sodium deoxycholate, 50 mM Tris-HCl (pH 8.0), 0.1% SDS, and 1% NP-40, supplemented with freshly added protease inhibitors mixture]. KPC1 species proteins were immunoprecipitated with immobilized anti-FLAG, with subsequent washing of the beads five times with RIPA buffer. The immunoprecipitated proteins were resolved by SDS-PAGE (10%, FIGS. 1A, 1B, 2A and 2B, with a gel gradient, of 4-20%; FIGS. 3A and 3B), and blotted onto nitrocellulose (FIGS. 1A, 1B, 2A and 2B) or PVDF (FIGS. 3A and 3B) membranes. p105 and KPC1 species were visualized using anti-NF-κB1 or anti-FLAG antibodies, respectively.
Identification of the region of KPC1 that is responsible for the interaction with p105. In order to identify the region of KPC1 that is responsible for the interaction with p105, several truncated segments of the DNA sequence of the KPC1 protein were cloned. The truncated segments were inserted into the pCAGGS expression vector to analyze their interaction with p105 by co-immunoprecipitation (Co-IP) from cells. HEK 293T cells were transfected with cDNAs coding for p105-HA, along with different fragments of KPC1 (FIG. 1A). Species of KPC1 were immunoprecipitated using an immobilized anti-Flag antibody. […]

B1: KPC1Δ1-967: KPC1 species that lacks amino acids 1-967, SEQ ID NO: 5 (protein)
chain: WILVRLWRGCGFGYRYTRLPHLLKTKLEDANLPSLQKPCPSTLLQQHMADLLQQGPDVAPSFLNSVLNQLNWAFSEFIGMIQEIQQAAERLERNFVDSRQLKVCATCFDLSVSLLRVLEMTITLVPEIFLDWTRPTSEMLLRRLAQLLNQVLNRVTAERNLFDRVVTLRLPGLESVDHYPILVAVTGILVQLLVRGPASEREQATSVLLADPCFQLRSICYLLGQPEPPAPGTALPAPDRKRFSLQSYADYISADELAQVEQMLAHLTSASAQAAAASLPTSEEDLCPICYAHPISAVFQPCGHKSCKACINQHLMNNKDCFFCKTTIVSVEDWEKGANTSTTSSAA
interaction with p105 (Co-IP): an interaction was observed

B2: KPC1Δ1-973: KPC1 species that lacks the amino acids 1-973 (protein, UniProt Q5XPI4 974-1314, looked up, fragment)
chain: WRGCGFGYRYTRLPHLLKTKLEDANLPSLQKPCPSTLLQQHMADLLQQGPDVAPSFLNSVLNQLNWAFSEFIGMIQEIQQAAERLERNFVDSRQLKVCATCFDLSVSLLRVLEMTITLVPEIFLDWTRPTSEMLLRRLAQLLNQVLNRVTAERNLFDRVVTLRLPGLESVDHYPILVAVTGILVQLLVRGPASEREQATSVLLADPCFQLRSICYLLGQPEPPAPGTALPAPDRKRFSLQSYADYISADELAQVEQMLAHLTSASAQAAAASLPTSEEDLCPICYAHPISAVFQPCGHKSCKACINQHLMNNKDCFFCKTTIVSVEDWEKGANTSTTSSAA
interaction with p105 (Co-IP): the interaction between these two proteins was abrogated

B3: KPC1Δ1-1017: KPC1 species that lacks the amino acids 1-1017 (protein, UniProt Q5XPI4 1018-1314, looked up, fragment)
chain: LLQQGPDVAPSFLNSVLNQLNWAFSEFIGMIQEIQQAAERLERNFVDSRQLKVCATCFDLSVSLLRVLEMTITLVPEIFLDWTRPTSEMLLRRLAQLLNQVLNRVTAERNLFDRVVTLRLPGLESVDHYPILVAVTGILVQLLVRGPASEREQATSVLLADPCFQLRSICYLLGQPEPPAPGTALPAPDRKRFSLQSYADYISADELAQVEQMLAHLTSASAQAAAASLPTSEEDLCPICYAHPISAVFQPCGHKSCKACINQHLMNNKDCFFCKTTIVSVEDWEKGANTSTTSSAA
interaction with p105 (Co-IP): did not interact with p105

B4: WILVRLW-KPC1Δ1-1253: KPC1 lacking amino acids 1-1253 with WILVRLW at its N-terminus, SEQ ID NO: 8 (protein)
chain: WILVRLWCPICYAHPISAVFQPCGHKSCKACINQHLMNNKDCFFCKTTIVSVEDWEKGANTSTTSSAA
interaction with p105 (Co-IP): An interaction was observed

B5: KPC1ΔCC: KPC1 species that lacks the amino acids 1041-1061 (coiled coil domain) (protein)
chain: MASKGAGMSFSRKSYRLTSDAEKSRVTGIVQEKLLNDYLNRIFSSSEHAPPAATSRKPLNFQNLPEHLDQLLQVDNEEEESQGQVEGRLGPSTVVLDHTGGFEGLLLVDDDLLGVIGHSNFGTIRSTTCVYKGKWLYEVLISSQGLMQIGWCTISCRFNQEEGVGDTHNSYAYDGNRVRKWNVTTTNYGKAWAAGDIVSCLIDLDDGTLSFCLNGVSLGTAFENLSRGLGMAYFPAISLSFKESVAFNFGSRPLRYPVAGYRPLQDPPSADLVRAQRLLGCFRAVLSVELDPVEGRLLDKESSKWRLRGQPTVLLTLAHIFHHFAPLLRKVYLVEAVLMSFLLGIVEKGTPTQAQSVVHQVLDLLWLFMEDYEVQDCLKQLMMSLLRLYRFSPIVPDLGLQIHYLRLTIAILRHEKSRKFLLSNVLFDVLRSVVFFYIKSPLRVEEAGLQELIPTTWWPHCSSREGKESTEMKEETAEERLRRRAYERGCQRLRKRIEVVEELQVQILKLLLDNKDDNGGEASRYIFLTKFRKFLQENASGRGNMPMLCPPEYMVCFLHRLISALRYYWDEYKASNPHASFSEEAYIPPQVFYNGKVDYFDLQRLGGLLSHLRKTLKDDLASKANIVIDPLELQSTAMDDLDEDEEPAPAMAQRPMQALAVGGPLPLPRPGWLSSPTLGRANRFLSTAAVSLMTPRRPLSTSEKVKVRTLSVEQRTREDIEGSHWNEGLLLGRPPEEPEQPLTENSLLEVLDGAVMMYNLSVHQQLGKMVGVSDDVNEYAMALRDTEDKLRRCPKRRKDILAELTKSQKVFSEKLDHLSRRLAWVHATVYSQEKMLDIYWLLRVCLRTIEHGDRTGSLFAFMPEFYLSVAINSYSALKNYFGPVHSMEELPGYEETLTRLAAILAKHFADARIVGTDIRDSLMQALASYVCYPHSLRAVERIPEEQRIAMVRNLLAPYEQRPWAQTNWILVRLWRGCGFGYRYTRLPHLLKTKLEDANLPSLQKPCPSTLLQQHMADLLQQGPDVAPSFLNSVLNQLNWAFVDSRQLKVCATCFDLSVSLLRVLEMTITLVPEIFLDWTRPTSEMLLRRLAQLLNQVLNRVTAERNLFDRVVTLRLPGLESVDHYPILVAVTGILVQLLVRGPASEREQATSVLLADPCFQLRSICYLLGQPEPPAPGTALPAPDRKRFSLQSYADYISADELAQVEQMLAHLTSASAQAAAASLPTSEEDLCPICYAHPISAVFQPCGHKSCKACINQHLMNNKDCFFCKTTIVSVEDWEKGANTSTTSSAA
interaction with p105 (Co-IP): An interaction
